Fewer inactive variants are shown than the library holds.
B1: TPR 5TU (parent)
chain: GGAUCUUCUCGAUCUAACAAAAAAGACAAAUCUGCCACAAAGCUUGAGAGCAUCUUCGGAUGCAGAGGCGGCAGCCUUCGGUGGCGCGAUAGCGCCAACGUUCUCAACUAUGACACGCAAAACGCGUGCUCCGUUGAAUGGAGUUUAUCAUG

Variants of: B1
Assay: polymerase ribozyme fitness, log enrichment relative to wild type (log ratio); higher = more active; in vitro selection for triplet polymerase activity
Summary of the method: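 Frozen incubation at −7 °C formed the core of a single, triplicate in vitro selection round applied to PCR-built, transcribed mutant libraries of each subunit of a heterodimeric triplet polymerase ribozyme. Extended constructs were gel-excised, captured with streptavidin beads and amplified by RT-PCR, and input and output libraries were Illumina-sequenced with a filter of ≥10 input reads and ≥1 read per output. Fitness is the logarithm of genotype enrichment relative to wild-type enrichment, with inverse-variance-weighted replicate averaging, and the logarithm is base 2.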

Row | Variant | polymerase ribozyme fitness (log ratio)
1 | A19C U56A G65A C87U A97U | -1.81
2 | A19U A22G A52C C114A A142G | ≤ -4.2
3 | A19C A20G U55A G58U C85A G140C | ≤ -4.2
4 | C18U C87U C99G | -2.1
5 | A19C U61G C93A | -4.05
6 | A19C C38G G70A G80C A98G C118U A150U | -3.77
7 | A19G A26U U45A A52U U61A G70C C85G A115U G141U | ≤ -4.2
8 | A19G C51U C95A A115U | -3.61
9 | A19G C27U G59U G94C | -2.46
10 | C18U A41G G46A U56G C85A U135G U144C | ≤ -4.2
11 | A19U A21U A23U G67C G88A U102C A150G | ≤ -4.2
12 | A19C C57A | 0.797
13 | A17G A40G G50C C85A | ≤ -4.2
14 | C18U G58C A73G C132A | -3.75
15 | A19G C35U C87U C95A | -2.49
16 | A17G A47C U130A | -4.1
17 | C18G G83U C95U | -2.08
18 | A19U A23G | -3.44
19 | A17G C27U A41U | -1.51
20 | A19C A26C C38A C43G G74U G80C | ≤ -4.2
21 | C18U G46U G94A C131U | -1.88
22 | A17U A28U G83U C96A C99U C132G | ≤ -4.2
23 | A19G A52U G83A A98G C118G G124A U134C G140U | ≤ -4.2
24 | C18U G74C C96A | ≤ -4.2

Row | Variant | polymerase ribozyme fitness (log ratio)
25 | A19G C93A A113U G141C | ≤ -4.2
26 | A19C C51G U55G C93U G126C | -2.57
27 | C18G U44A G83A C85A A98U U102G | ≤ -4.2
28 | C18U A19G G50A C54U G67C C69A G92C C114A A120U U134G | ≤ -4.2
29 | A19C G62A C85A A137U U151A | ≤ -4.2
30 | A19G C54A | -1.26
31 | A17U A22U A26G C36G G67C C95A | ≤ -4.2
32 | C18G U61C C85G C95U | ≤ -4.2
33 | A19G A29U A49G C118U | ≤ -4.2
34 | A17U G94C | -1.63
35 | A17G A39U G94U G141A | -4.08
36 | C18A U56A C93A A137G | -4.08
37 | A19C G50C A52G | -2.64
38 | C18G C51U C85A A107U C118U A137U | ≤ -4.2
39 | C18G A21U C35U C95U | -1.12
40 | A17G C76A A119U | -0.0837
41 | C18G C72G G84C | ≤ -4.2
42 | A17G U31A | 0.512
43 | A19G C38U C76G C93A C103A G143U | ≤ -4.2
44 | C18G C27G U53G A120C | ≤ -4.2
45 | C18G G46U A73U C85U G92U C125A | ≤ -4.2
46 | A19C U55G C93U G136U | -3.02
47 | C18G C57U G59A G80A G86U C108G C116U U145A C149G G152U | ≤ -4.2
48 | A17U U55A G59C G94U C132G | ≤ -4.2

Row | Variant | polymerase ribozyme fitness (log ratio)
49 | C18A U31C A40C G62C A91C A119G | ≤ -4.2
50 | A19C G128C | -3
51 | A19G U82C C116U C125A G141U | ≤ -4.2
52 | C18U A30U C99G A106U | ≤ -4.2
53 | C18G C123G | -0.253
54 | A17U U31A C57U C76U C96G C103G U146C | ≤ -4.2
55 | A17G C87U | -0.0232
56 | A17U A26U A47C A49C G83C C85G | ≤ -4.2
57 | A19G C38A U102C C108U | ≤ -4.2
58 | C18U C57A C95U C96A | -1.46
59 | A17G C54G C93G A106G G126U G141U U144C | ≤ -4.2
60 | A17U C38U C95U A115C A142U | -3.52
61 | A19U A21U A30U A40C U55A C96U G126A C132U G143U | ≤ -4.2
62 | A17U U90A U102A U127A A137G A138C U151A | ≤ -4.2
63 | A19G U44G C63U C76G C103A C125A | ≤ -4.2
64 | A19G | -0.472
65 | A19C | 0.425
66 | A19U | -0.43
67 | A19G C57U G92A U104G C116U | -4.18
68 | A19G C27U C35A A73G U77A G80C | ≤ -4.2
69 | A19G A52U C96U A122G | -2.62
70 | A19C A106C | 0.458
71 | A17U C54U G84A | -0.832
72 | A17U U44G U56G G128U | ≤ -4.2

Row | Variant | polymerase ribozyme fitness (log ratio)
73 | C18U A89C A91G A122U C125A U134C | ≤ -4.2
74 | C18A A20C U53C G59U C93G U148C | -4.14
75 | A19G A52G G58U A64G U139A | ≤ -4.2
76 | A19C A20U C54A | -1.03
77 | C18A G86A C96U A115C | -2.7
78 | C18G C27U A64C C93U | ≤ -4.2
79 | A17U A24C C32A G100A | ≤ -4.2
80 | C18U C51A A52G A122C | -1.98
81 | A19G A23G A110U | ≤ -4.2
82 | A17G G42U C51U C96U C108U | ≤ -4.2
83 | A19C C27G A28C G58C G59C A64C C85U | ≤ -4.2
84 | A17G A60G G84U C118A U146G | -2.3
85 | C18G A29U U44G U55G C57A C93U U104G | ≤ -4.2
86 | A17U A22U C35U C51U G83U | -1.87
87 | A19G U77A C96U A113G | ≤ -4.2
88 | A19C G65U A73U G88A C114A U148C | ≤ -4.2
89 | A19U A23U U77C C87U A106U C108G C123G | -4.07
90 | A19C A23G A30C A91G A138U U139G | -4.05
91 | A19G C85A G86U C93U U148A | ≤ -4.2
92 | C18U U78A G81U C87G U144A | ≤ -4.2
93 | C18U C95U | -0.678
94 | A19C A52C C85U C96U C108G G140C | ≤ -4.2
95 | C18G G88A G100C C103G | ≤ -4.2
96 | A19C U55G U90G | ≤ -4.2

Row | Variant | polymerase ribozyme fitness (log ratio)
97 | C18G C32U G46C U53A C85U | ≤ -4.2
98 | C18G C76A C85U | -0.589
99 | C18U A49U | -1.09
100 | A19G G141C | -0.542
101 | A19G G141U | 1.06
102 | A19G G84A U146C | -0.526
103 | A17U A21G A40G U55A A60G C95A U146C | -2.4
104 | A17U C76A A122G | -0.419
105 | A19U A30U C36G A97U | ≤ -4.2
106 | C18A A20U A24G A26G A29U C57A U77A G88C | ≤ -4.2
107 | A17G C85U | -1.27
108 | A17U C69U U77C C87U | ≤ -4.2
109 | C18U A40U C85U C96U C116U | 0.0691
110 | A19C C95A C96U C125G C149U | ≤ -4.2
111 | C18U C85A | -0.837
112 | C18G U61G U77G U82C C103G | ≤ -4.2
113 | C18G C57A A147U | 0.567
114 | A19G A20U U55A C87A C131U U148A | ≤ -4.2
115 | C18G U53A U61A A137C | ≤ -4.2
116 | A19C G80A C96U C99U G124A | 0.098
117 | A17U A39C G80A G86U G117U U144C U148G | ≤ -4.2
118 | A17G A41U C54U A73G | -1.46
119 | A19C U31A G92U | 0.391
120 | A17U G62U C85U G141U | -0.389

Row | Variant | polymerase ribozyme fitness (log ratio)
121 | C18G G92A | -3.23
122 | A19C A52G | -0.125
123 | A19U A24C G86A G140U | ≤ -4.2
124 | A19U A28U G83C | ≤ -4.2
125 | C18U C32G C51U C87G | ≤ -4.2
126 | A17U A30C C35A U55G U109A | -4.11
127 | A19G U53A C57U C96A G100C U134C G143C | ≤ -4.2
128 | A17U A23C A37C A41C C96A G124U | ≤ -4.2
129 | A19G U44A G58A G67A C87A A106G G141U | ≤ -4.2
130 | C18U C32U A41G G48A G68C C87U G94U A107G C149A A150G | ≤ -4.2
131 | C18G A22G A26U U31G U53A G68U C95U A115G | ≤ -4.2
132 | C18U A29U A91U A107U | ≤ -4.2
133 | A19U A20C U109G | -2.07
134 | A17U U90G C103A | ≤ -4.2
135 | C18U A19G A21C C35U U55A G92C A147U | -2.94
136 | C18U A91G A120G C132U G141C | ≤ -4.2
137 | A19U A21C C96U C129A | -4.13
138 | A19C C96U G124C | -0.582
139 | C18U C54U C57A G83U | -1.15
140 | C18U A22C A40U A89C | -0.248
141 | A17G U134A | -2.69
142 | A17G C57U G94C U139C U144A | ≤ -4.2
143 | A17U G86A | -0.694
144 | C18G G50A A91G G94C C132G | ≤ -4.2

Row | Variant | polymerase ribozyme fitness (log ratio)
145 | C18G A41U A91G U148G | ≤ -4.2
146 | A17U C69G G80C A107U C131U U145G | ≤ -4.2
147 | A19G C57U G65A U102A G126U | -3.89
148 | A19G A39C G92A C116A | ≤ -4.2
149 | A17G C36G G83C C99U U104G C125U U145C A147C | ≤ -4.2
150 | A17G G84U | -2
151 | A17G A60G U61A A110G C118U C129A | ≤ -4.2
152 | C18A C38A A47C C93A A98U | -3.69
153 | A17G C32U C35G G62C C75A | ≤ -4.2
154 | A17U A24U | 0.106
155 | A17U A23U A28G U55A G84A | ≤ -4.2
156 | A19C G50A | -1.01
157 | C18G C32G U55A G83U G88U A113C A138C | ≤ -4.2
158 | A19C G58C G88U A98G C103G | ≤ -4.2
159 | A17U A98U | -1.12
160 | C18A C36A G58A A64U C85A | ≤ -4.2
161 | A19G U55G C57G A97G A106C | -2.96
162 | C18G A21G A23C A40U G70A C79G C87G G117C | ≤ -4.2
163 | A19C A49C A60G U101G G141A | -2.8
164 | C18A A73G G83C C118U A150G | ≤ -4.2
165 | C18G A24U G50U U53A A73G G92A | ≤ -4.2
166 | C18U C51A U53A C57U G59C C95A | -4.09
167 | C18G G42C C87U A138C U145A | ≤ -4.2

From the RNAGym collection of RNA variant scans (doi:10.1073/pnas.2313332121)
